# Data: paper PMC8660638
# B1: Pol I OC scaffold (template/nontemplate DNA, no RNA) (dsDNA)
# DNA 1: GTACTGAATTAGACAATGCTCTGTGGCTCTAGTACCATGAGCG
# DNA 2: CGCTCATGGTACTAGGCTTCGGAGAAGTTGTCTAATTCAGTAC
# Molecular target: RNA polymerase I (13-subunit complex) (Homo sapiens (HEK293T), UniProt O95602;Q9H9Y6;O15160;P0DPB6;Q9P1U0;Q3B726;Q9GZS1;O15446;P19388;P61218;P52434;P53 …)
# Test: cryo-EM structure; open complex, inactive state, 3.3 A; RRN3 in sample but not bound in this class; downstream duplex traced, bubble not stably bound at active site; EM buffer: 15 mM HEPES pH 7.5, 80 mM (NH4)2SO4, 5 mM MgCl2, 10 mM DTT; scaffold annealed in 20 mM HEPES pH 7.5, 12 mM MgCl2, 100 mM NaCl, 10 mM DTT (1x, from printed 2x); complex incubation temperature not given
# Conditions: protein: native; copies: 1;1;1;1;1;1;1;1;1;1;1;1;1; 43-bp duplex with 12-nt mismatch bubble, blunt
binder,measurement,value
B1,binding result,binds
